Laboratory results taken from patent publication US9212226B2, “Amino acid sequences directed against CXCR4 and other GPCRs and compounds comprising the same” (Ablynx N.V., priority 2008, dated 2015).
Entries after “also recorded” stand apart in the source; their conditions may differ. Values belong to the molecule of their own block, whether it stands above or below them.

Assays:
Type in all cases: cell-based
histamine H4 receptors = histamine H4 receptors (Homo sapiens, UniProt Q9H3N8); assay: CRE/β-galactosidase reporter gene selectivity screen, histamine H4 receptor; settings: up to 2.5, forskolin 3 μM, agonist at 50-80% Emax
CCR5 = CCR5 (Homo sapiens, UniProt P51681); assay: CRE/β-galactosidase reporter gene selectivity screen, CCR5; settings: up to 2.5, forskolin 3 μM, agonist at 50-80% Emax
CCR5, sequence (P51681 whole entry): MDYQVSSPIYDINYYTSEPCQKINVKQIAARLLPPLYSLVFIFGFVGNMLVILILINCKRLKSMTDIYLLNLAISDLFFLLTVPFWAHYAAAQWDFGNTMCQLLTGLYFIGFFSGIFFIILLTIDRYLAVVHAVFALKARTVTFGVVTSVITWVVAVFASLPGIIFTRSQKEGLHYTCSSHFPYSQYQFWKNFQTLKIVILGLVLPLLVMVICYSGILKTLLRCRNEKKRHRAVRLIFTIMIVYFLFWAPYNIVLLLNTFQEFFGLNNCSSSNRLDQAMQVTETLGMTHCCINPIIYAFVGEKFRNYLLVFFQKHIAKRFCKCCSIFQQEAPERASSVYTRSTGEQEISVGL
Protocol: Data are shown as means±S.E.M. (n=2-3).
HEK293T cells were maintained at 37° C. in a humidified 5% CO2, 95% air atmosphere in Dulbecco's modified Eagle's medium (DMEM) containing 2 mM L-glutamine, 50 IU/ml penicillin, 50 μg/ml streptomycin, and 10% (v/v) fetal calf serum. Jurkat cells were cultured in a humidified 5% CO2, 95% air atmosphere in a 1:1 mixture of Dulbecco's modified Eagle's medium (DMEM) and Ham's F12 medium containing 2 mM L-glutamine, 50 IU/ml penicillin, 50 μg/ml streptomycin, and 10% (v/v) fetal calf serum. […] [^125 I]-Labelling— Radiolabeling of Nanobodies with ^125I was performed using the Iodo-gen method (Pierce, Rockford, Ill.) according to the manufacturer's protocol. ^125I-labeled Nanobodies was separated from free iodine (>99%) using a Sephadex G-25 gel filtration column (Amersham Biosciences, Piscataway, N.J.). […] Competition Binding Assays— Membranes from HEK293T cells transiently expressing CXCR3 or CXCR4 were prepared 48 h after transfection as follows. Cells were washed and scraped from the cell culture dishes with ice-cold PBS containing 1 mm EDTA. The scraped cells were pelleted at 1500×g for 10 min at 4° C. […] The total protein was determined using a Bradford assay (Bio-Rad). […] Plates were counted by liquid scintillation. […] The accumulated inositol phosphates were isolated by anion exchange chromatography and counted by liquid scintillation. […]

CXCR4 = CXCR4 (Homo sapiens, UniProt P61073); assay: Inositol phosphate accumulation assay in HEK293T cells expressing CXCR4 and Gαqi5; settings: for inhibition of the CXCL12-induced accumulation of inositol phosphates: CXCL12 30 nM; for agonist activity, inositol phosphate accumulation: up to a concentration of 100 nM
CXCR4, sequence (P61073 whole entry): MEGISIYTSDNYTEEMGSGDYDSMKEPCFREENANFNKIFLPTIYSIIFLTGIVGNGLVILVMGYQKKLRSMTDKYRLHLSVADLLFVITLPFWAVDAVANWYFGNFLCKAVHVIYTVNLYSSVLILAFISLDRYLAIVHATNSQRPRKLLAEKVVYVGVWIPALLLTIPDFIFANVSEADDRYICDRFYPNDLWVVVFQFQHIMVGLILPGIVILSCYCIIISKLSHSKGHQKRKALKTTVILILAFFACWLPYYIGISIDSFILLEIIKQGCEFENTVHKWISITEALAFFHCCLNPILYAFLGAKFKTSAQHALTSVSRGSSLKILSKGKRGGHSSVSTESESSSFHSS
Protocol: HEK293T cells were maintained at 37° C. in a humidified 5% CO2, 95% air atmosphere in Dulbecco's modified Eagle's medium (DMEM) containing 2 mM L-glutamine, 50 IU/ml penicillin, 50 μg/ml streptomycin, and 10% (v/v) fetal calf serum. Jurkat cells were cultured in a humidified 5% CO2, 95% air atmosphere in a 1:1 mixture of Dulbecco's modified Eagle's medium (DMEM) and Ham's F12 medium containing 2 mM L-glutamine, 50 IU/ml penicillin, 50 μg/ml streptomycin, and 10% (v/v) fetal calf serum. […] [^125 I]-Labelling— Radiolabeling of Nanobodies with ^125I was performed using the Iodo-gen method (Pierce, Rockford, Ill.) according to the manufacturer's protocol. ^125I-labeled Nanobodies was separated from free iodine (>99%) using a Sephadex G-25 gel filtration column (Amersham Biosciences, Piscataway, N.J.). […] Competition Binding Assays— Membranes from HEK293T cells transiently expressing CXCR3 or CXCR4 were prepared 48 h after transfection as follows. Cells were washed and scraped from the cell culture dishes with ice-cold PBS containing 1 mm EDTA. The scraped cells were pelleted at 1500×g for 10 min at 4° C. The pellet was washed and then resuspended in ice-cold membrane buffer (15 mM Tris, pH 7.5, 1 mM EGTA, 0.3 mM EDTA, and 2 mM MgCl2). The cell suspension was homogenized by 10 strokes at 1200 rpm using a Teflon-glass homogenizer and rotor and further subjected to three freeze-thaw cycles using liquid nitrogen. Membranes were separated by centrifugation at 40,000 g for 25 min at 4° C. The membrane pellet was washed and resuspended in ice-cold Tris-sucrose buffer (20 mM Tris, pH 7.4, and 250 mM sucrose) and frozen in liquid nitrogen. The total protein was determined using a Bradford assay (Bio-Rad). Periplasmas (1:10) or ligands were pre-incubated with membranes in binding buffer (50 mM HEPES (pH 7.4), 1 mM CaCl2, 5 mM MgCl2, 100 mM NaCl, 0.5% bovine serum albumin) supplemented with 0.5% BSA for 1 h at 22° C. before the addition of [^125I]-CXCL12 (40 pM) or [^125I]-238D2 (3 nM) or [^125I]-238D4 (3 nM) for additional 2 h at 22° C. […] Membranes were then harvested over polyethylenimine (0.5%)-treated Whatman GF/C filter plates and washed three times with ice cold binding buffer containing 500 mM NaCl. Plates were counted by liquid scintillation. Inositol Phosphate Accumulation Assay— 24 hours post transfection with pcDNA3.1-CXCR4 and pcDNA1-HA-mG {alpha} qi5 (see Verzijl et al, 2008 supra), 250.000 cells were seeded into 24-wells plates and labelled overnight using inositol-free minimal essential medium supplemented with 1 μCi myo-[2-^3H]-inositol. The next day, the cells were washed once to remove not incorporated myo-[2-^3H]-inositol. […] In agonist experiments, the cells were directly stimulated with test compounds and LiCl (10 mM) in assay buffer for 2 h at 37° C. The stimulation was stopped by aspirating the stimulation medium and adding ice-cold 10 mM formic acid. The accumulated inositol phosphates were isolated by anion exchange chromatography and counted by liquid scintillation. CRE Reporter Gene Assay— HEK239T cells were transfected with pCRE/β-galactosidase (Chen W, Shields T S, Stork P J S, Cone R D (1995) Anal Biochem 226:349-354) and plasmids (pcDEF3 or pcDNA3.1) encoding the indicated receptors. 40,000 transfected cells per well were seeded into 96 well plates and grown in DMEM supplemented with 10% fetal calf serum. The medium was replaced 32 h after transfection by serum-free DMEM supplemented with 0.5% bovine serum albumin and ligands as indicated. Following 16 h of ligand incubation, the medium was removed, the cells were lysed in 100 μl of assay buffer (100 mM sodium phosphate buffer at pH 8.0, 4 mM 2-nitrophenol-β-D-pyranoside, 0.5% Triton X-100, 2 mM MgSO4, 0.1 mM MnCl2, and 40 mM β-mercaptoethanol) and incubated at room temperature. […]

[1] = HEK293T-CXCR4-Gαqi5/30 nM CXCL12, mean ± S.E.M.

- inhibition of the CXCL12-induced accumulation of inositol phosphates (CXCR4): fully inhibited
- Imax (%), IP accumulation (CXCR4; [1]): 86 ± 12%
- pKi or pIC50, IP accumulation (CXCR4; [1]): 8.51 ± 0.11
B1: 238D2: Nanobody (VHH) raised against human CXCR4, SEQ ID NO: 238 (protein)
VHH: EVQLVESGGGLVQTGGSLRLSCAASGFTFSSYAMSWVRQAPGKGLEWVSGIKSSGDSTRYAGSVKGRFTISRDNAKNMLYLQMYSLKPEDTAVYYCAKSRVSRTGLYTYDNRGQGTQVTVSS
modifications: Nanobody, Nanobody constructs or fragments thereof
- effect on agonist-induced response at histamine H4 receptors (histamine H4 receptors): do not act as agonists or antagonists; also recorded: do not alter
- effect on agonist-induced response at CCR5 (CCR5): do not act as agonists or antagonists; also recorded: do not alter
- agonist activity, inositol phosphate accumulation (CXCR4): no intrinsic activity; also recorded: No agonist activity

- inhibition of the CXCL12-induced accumulation of inositol phosphates (CXCR4): fully inhibited
- Imax (%), IP accumulation (CXCR4; [1]): 90 ± 5%
B2: 238D4: Nanobody (VHH) raised against human CXCR4, SEQ ID NO: 239 (protein)
VHH: EVQLMESGGGLVQAGGSLRLSCAASGRTFNNYAMGWFRRAPGKEREFVAAITRSGVRSGVSAIYGDSVKDRFTISRDNAKNTLYLQMNSLKPEDTAVYTCAASAIGSGALRRFEYDYSGQGTQVTVSS
modifications: Nanobody, Nanobody constructs or fragments thereof
- effect on agonist-induced response at histamine H4 receptors (histamine H4 receptors): do not act as agonists or antagonists; also recorded: do not alter
- effect on agonist-induced response at CCR5 (CCR5): do not act as agonists or antagonists; also recorded: do not alter
- agonist activity, inositol phosphate accumulation (CXCR4): no intrinsic activity; also recorded: No agonist activity
